{"source": "paper PMC3807708", "key": {"[1]": {"target": "extracellular domain of human interferon-γ receptor 1 (IFN-γ-Rx), wild type (human) (UniProt P15260)", "test": "SPR; His-tagged receptor immobilised on Ni2+-coated HTG chip; IFN-γ-SC as analyte; PBST; 35 °C; preliminary data of temperature dependency"}, "[2]": {"target": "extracellular domain of human interferon-γ receptor 1 (IFN-γ-Rx), mutant S95R (human) (UniProt P15260)", "test": "SPR; His-tagged receptor immobilised on Ni2+-coated HTG chip; IFN-γ-SC as analyte; PBST; 35 °C; preliminary data of temperature dependency"}, "[3]": {"target": "extracellular domain of human interferon-γ receptor 1 (IFN-γ-Rx), mutant H222R (human) (UniProt P15260)", "test": "SPR; His-tagged receptor immobilised on Ni2+-coated HTG chip; IFN-γ-SC as analyte; PBST; 35 °C; preliminary data of temperature dependency"}, "[4]": {"target": "extracellular domain of human interferon-γ receptor 1 (IFN-γ-Rx), mutant N70G (human) (UniProt P15260)", "test": "SPR; His-tagged receptor immobilised on Ni2+-coated HTG chip; IFN-γ-SC as analyte; PBST; 35 °C; preliminary data of temperature dependency"}, "[5]": {"target": "extracellular domain of human interferon-γ receptor 1 (IFN-γ-Rx), mutant N96W (human) (UniProt P15260)", "test": "SPR; His-tagged receptor immobilised on Ni2+-coated HTG chip; IFN-γ-SC as analyte; PBST; 35 °C; preliminary data of temperature dependency"}, "[6]": {"target": "extracellular domain of human interferon-γ receptor 1 (IFN-γ-Rx), wild type (human) (UniProt P15260)", "test": "SPR; His-tagged receptor immobilised on Ni2+-coated HTG chip; IFN-γ-SC as analyte; PBST; 30 °C; preliminary data of temperature dependency"}, "[7]": {"target": "extracellular domain of human interferon-γ receptor 1 (IFN-γ-Rx), mutant S95R (human) (UniProt P15260)", "test": "SPR; His-tagged receptor immobilised on Ni2+-coated HTG chip; IFN-γ-SC as analyte; PBST; 30 °C; preliminary data of temperature dependency"}, "[8]": {"target": "extracellular domain of human interferon-γ receptor 1 (IFN-γ-Rx), mutant H222R (human) (UniProt P15260)", "test": "SPR; His-tagged receptor immobilised on Ni2+-coated HTG chip; IFN-γ-SC as analyte; PBST; 30 °C; preliminary data of temperature dependency"}, "[9]": {"target": "extracellular domain of human interferon-γ receptor 1 (IFN-γ-Rx), mutant N70G (human) (UniProt P15260)", "test": "SPR; His-tagged receptor immobilised on Ni2+-coated HTG chip; IFN-γ-SC as analyte; PBST; 30 °C; preliminary data of temperature dependency"}, "[10]": {"target": "extracellular domain of human interferon-γ receptor 1 (IFN-γ-Rx), mutant N96W (human) (UniProt P15260)", "test": "SPR; His-tagged receptor immobilised on Ni2+-coated HTG chip; IFN-γ-SC as analyte; PBST; 30 °C; preliminary data of temperature dependency"}, "[11]": {"target": "extracellular domain of human interferon-γ receptor 1 (IFN-γ-Rx), wild type (human) (UniProt P15260)", "test": "SPR; His-tagged receptor immobilised on Ni2+-coated HTG chip; IFN-γ-SC as analyte; PBST; 25 °C; preliminary data of temperature dependency"}, "[12]": {"target": "extracellular domain of human interferon-γ receptor 1 (IFN-γ-Rx), mutant S95R (human) (UniProt P15260)", "test": "SPR; His-tagged receptor immobilised on Ni2+-coated HTG chip; IFN-γ-SC as analyte; PBST; 25 °C; preliminary data of temperature dependency"}, "[13]": {"target": "extracellular domain of human interferon-γ receptor 1 (IFN-γ-Rx), mutant H222R (human) (UniProt P15260)", "test": "SPR; His-tagged receptor immobilised on Ni2+-coated HTG chip; IFN-γ-SC as analyte; PBST; 25 °C; preliminary data of temperature dependency"}, "[14]": {"target": "extracellular domain of human interferon-γ receptor 1 (IFN-γ-Rx), mutant N96W (human) (UniProt P15260)", "test": "SPR; His-tagged receptor immobilised on Ni2+-coated HTG chip; IFN-γ-SC as analyte; PBST; 25 °C; preliminary data of temperature dependency"}, "[15]": {"target": "extracellular domain of human interferon-γ receptor 1 (IFN-γ-Rx), wild type (human) (UniProt P15260)", "test": "SPR; His-tagged receptor immobilised on Ni2+-coated HTG chip; IFN-γ-SC as analyte; PBST; 15 °C; preliminary data of temperature dependency"}, "[16]": {"target": "extracellular domain of human interferon-γ receptor 1 (IFN-γ-Rx), mutant S95R (human) (UniProt P15260)", "test": "SPR; His-tagged receptor immobilised on Ni2+-coated HTG chip; IFN-γ-SC as analyte; PBST; 15 °C; preliminary data of temperature dependency"}, "[17]": {"target": "extracellular domain of human interferon-γ receptor 1 (IFN-γ-Rx), mutant H222R (human) (UniProt P15260)", "test": "SPR; His-tagged receptor immobilised on Ni2+-coated HTG chip; IFN-γ-SC as analyte; PBST; 15 °C; preliminary data of temperature dependency"}, "[18]": {"target": "extracellular domain of human interferon-γ receptor 1 (IFN-γ-Rx), mutant N70G (human) (UniProt P15260)", "test": "SPR; His-tagged receptor immobilised on Ni2+-coated HTG chip; IFN-γ-SC as analyte; PBST; 15 °C; preliminary data of temperature dependency"}, "[19]": {"target": "extracellular domain of human interferon-γ receptor 1 (IFN-γ-Rx), mutant N96W (human) (UniProt P15260)", "test": "SPR; His-tagged receptor immobilised on Ni2+-coated HTG chip; IFN-γ-SC as analyte; PBST; 15 °C; preliminary data of temperature dependency"}, "[20]": {"target": "IFN-γ-Rx N70G (human) (UniProt P15260)", "test": "SPR; ProteOn XPR36; His-tagged receptor immobilised on Ni2+-activated HTG chip; IFN-γ-SC as analyte, 1.2 to 99 nM; PBST (PBS pH 7.4, 0.005% Tween20); 25°C; 1:1 Langmuir with drift model; doubly referenced"}, "[21]": {"target": "IFN-γ-Rx N70G + S95R (human) (UniProt P15260)", "test": "SPR; ProteOn XPR36; His-tagged receptor immobilised on Ni2+-activated HTG chip; IFN-γ-SC as analyte, 1.2 to 99 nM; PBST (PBS pH 7.4, 0.005% Tween20); 25°C; 1:1 Langmuir with drift model; doubly referenced"}}, "data": [{"substance": "single-chain form of human interferon-γ (IFN-γ-SC) (ligand)", "values": [{"measurement": "Kd", "setting": "[1]", "value": 92.8, "unit": "nM"}, {"measurement": "Kd", "setting": "[2]", "value": 153, "unit": "nM"}, {"measurement": "Kd", "setting": "[3]", "value": 103, "unit": "nM"}, {"measurement": "Kd", "setting": "[4]", "value": 77, "unit": "nM"}, {"measurement": "Kd", "setting": "[5]", "value": 24.3, "unit": "nM"}, {"measurement": "Kd", "setting": "[6]", "value": 59.9, "unit": "nM"}, {"measurement": "Kd", "setting": "[7]", "value": 107, "unit": "nM"}, {"measurement": "Kd", "setting": "[8]", "value": 56, "unit": "nM"}, {"measurement": "Kd", "setting": "[9]", "value": 49.2, "unit": "nM"}, {"measurement": "Kd", "setting": "[10]", "value": 12.2, "unit": "nM"}, {"measurement": "Kd", "setting": "[11]", "value": 30.5, "unit": "nM"}, {"measurement": "Kd", "setting": "[12]", "value": 69.4, "unit": "nM"}, {"measurement": "Kd", "setting": "[13]", "value": 30.1, "unit": "nM"}, {"measurement": "Kd", "setting": "[14]", "value": 6.1, "unit": "nM"}, {"measurement": "Kd", "setting": "[15]", "value": 16.8, "unit": "nM"}, {"measurement": "Kd", "setting": "[16]", "value": 38.6, "unit": "nM"}, {"measurement": "Kd", "setting": "[17]", "value": 16.4, "unit": "nM"}, {"measurement": "Kd", "setting": "[18]", "value": 14.7, "unit": "nM"}, {"measurement": "Kd", "setting": "[19]", "value": 5.55, "unit": "nM"}, {"measurement": "Kd", "setting": "[20]", "value": 23.6, "unit": "nM"}, {"measurement": "koff", "setting": "[20]", "value": 0.0264, "unit": "s⁻¹"}, {"measurement": "kon", "setting": "[20]", "value": "1.12e+06", "unit": "M⁻¹ s⁻¹"}, {"measurement": "Kd", "setting": "[21]", "value": 55.9, "unit": "nM"}, {"measurement": "koff", "setting": "[21]", "value": 0.0494, "unit": "s⁻¹"}, {"measurement": "kon", "setting": "[21]", "value": 889000, "unit": "M⁻¹ s⁻¹"}]}]}
